A value given as a limit tells only on which side of the number the result lay.

The values that follow come from US20250002570A1 (Innovent, published 2025).

The target of experiment [1] is T1, human VEGF C (human, UniProt P49767 103-227, limits assumed).
T1 construct: also called hVEGFC; hVEGF C
T1 sequence (looked up): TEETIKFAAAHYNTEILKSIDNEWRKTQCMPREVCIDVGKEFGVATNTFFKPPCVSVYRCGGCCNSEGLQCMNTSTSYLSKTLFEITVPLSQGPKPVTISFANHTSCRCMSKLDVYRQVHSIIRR
Description: ELISA blocking: VEGFC-biotin captured on streptavidin plate; blocked receptor VEGFR2-Fc (0.2 ug/mL), detected with anti-human Fc-HRP, OD450. How it is done: The blocking effects of the antibodies of the present invention on the binding of hVEGFC to a receptor KDR were determined.
(§1) SA (streptavidin) was diluted to 1 μg/mL, and 100 μL/well of SA was plated in a microplate at 4° C. overnight. The plate was washed 3 times with PBST and blocked with 3% BSA for 1.5 h. The plate was washed 3 times with PBST, 50 ng/ml of VEGFC-biotin (biotin-labeled human VEGF C) was added, and the plate was incubated for 1.5 h. 50 μL of antibody was incubated with VEGFR2-Fc (with a final concentration of 0.2 μg/mL, Beijing Sino Biological) or VEGFR3-Fc (with a final concentration of 0.2 μg/mL, Beijing Sino Biological) for 20 min in advance, and the mixture was added to the plate. The plate was washed 3 times with PBST, an anti-human FcHRP antibody (diluted in a ratio of 1:10000, BETHYL) was added, and then the plate was incubated for 30 min. The plate was washed 6 times with PBST, the color development was performed with TMB (SOLARBIO) for 5 min, and OD450 nm was read after stopping.

Experiment [2] deals with T1, human VEGF C. In words: BLI (ForteBio), monovalent binding, 30 C. The procedure: (§2) The equilibrium dissociation constant (KD) for binding of the antibodies of the present invention to human VEGF C was determined by bio-layer interferometry (ForteBio). A ForteBio affinity assay of prior art was performed (Estep. P., et al., “High throughput solution Based measurement of antibody-antigen affinity and epitope binning”, MAbs, 2013.5(2): 270-8).
(§3) 100 μL of SD buffer, antibodies, and antigens (human VEGF C, Beijing Sino Biological) were added to a 96-well black polystyrene half-area microplate (Greiner, 675076). The sensors were arranged according to the positions of the samples. The instrument settings were as follows: the operation procedures were Baseline, Loading −1 nm, Baseline, Association, and Dissociation; the run time of each procedure was dependent on the rates of association and dissociation; the rotation speed was 400 rpm, and the temperature was 30° C. The KD values were analyzed by ForteBio analysis software.
In general terms: Biolayer interferometry detects binding as a change in optical thickness at a sensor tip.

For experiment [3], the target named is T1, human VEGF C. In words: ELISA blocking: VEGFC-biotin captured on streptavidin plate; blocked receptor VEGFR3-Fc (0.2 ug/mL), detected with anti-human Fc-HRP, OD450. The procedure: as §1
(In an ELISA, binding on a coated surface is turned into a signal by an enzyme label.)

Experiment [4] concerns the target T1, human VEGF C. The experiment is described as above. How it is done: as §1
The source holds these as a separate data set.

The target in experiment [5] is T1, human VEGF C. In words: BLI (ForteBio), bivalent binding, 30 C. The procedure: as §2, §3
Experiment [6] has as its target T1, human VEGF C. Description: ELISA blocking: VEGFC-biotin captured on streptavidin plate; blocked receptor VEGFR3-Fc (0.2 ug/mL), detected with anti-human Fc-HRP, OD450. How it is done: as §1
This is another data set of the same source.

The target in experiment [7] is T1, human VEGF C. In words: BLI (ForteBio), bivalent binding, 30 C; * beyond the ForteBio detection limit. The procedure: as §2, §3
The target in experiment [8] is T1, human VEGF C. In words: BLI (ForteBio), bivalent binding, 30 C; * beyond the ForteBio detection limit; bivalent binding, ForteBio; kdis at the detection limit. How it is done: as §2, §3

A word on the IC50: it is the point on the concentration scale where inhibition reaches its midpoint. Low values mean greater potency, high ones weaker potency. Molecule OPT-302-His had an IC50 with human VEGF C [1] of 0.0118 mg/L.

B1: am63G12-5G8-18B9 affinity-matured humanized anti-VEGF C VHH antibody (VHH)
VHH: EVQLVESGGGLVQPGGSLRLSCAASGSSFSPYAMGWYRQAPGKQRELVSATSSGGFTLYADSVKGRFTISRDNSKNTVYLQMNSLRAEDTAVYYCYTYYREYDPEMYWGQGTQVTVSS
notes: also called Am63G2-5G8-18B9; am63G12.1-5G8-18B9
What is called koff is the first-order rate constant of dissociation. What is called kon is the second-order rate constant of association. Take B1: in the experiment with human VEGF C [2], the Kd was 5.7 nM, the koff was found to be 0.00036 s⁻¹ and the kon turned out to be 63100 M⁻¹ s⁻¹. Also, in the experiment with human VEGF C [3], the IC50 was found to be 0.0215 mg/L.

B2: LA63G12 anti-VEGF C VHH antibody (VHH)
VHH: QLQLVESGGGLVQPGGSLRLSCAASGSSFSPYAMGWYRQAPGKQRELVAATTSGGSTLYADSVKGRFTISRDNAKNTVYLQMNSLKPEDTAVYYCYMHWRGSDPENYWGQGTQVTVSS
notes: The prokaryotic product was purified on Ni Sepharose
As for B2, the IC50 in the experiment with human VEGF C [1] was determined as 0.159 mg/L; with human VEGF C [4], 0.342 mg/L; in the experiment with human VEGF C [6] it was 0.371 mg/L; with human VEGF C [3], 0.125 mg/L. In addition, the figures for the Kd with human VEGF C [2] and with human VEGF C [5] were 16.4 nM and 0.656 nM, respectively. Besides, the koff in the experiment with human VEGF C [2] was 0.000761 s⁻¹; with human VEGF C [7] it was not above 0.0002 s⁻¹. For the same molecule, the kon with human VEGF C [2] was found to be 46500 M⁻¹ s⁻¹; in the experiment with human VEGF C [5] it was 305000 M⁻¹ s⁻¹.

B3: LA49G9.2 humanized anti-VEGF C VHH-Fc antibody (Fc fusion)
chain: EVQLVESGGGLVQPGGSLRLSCAASGSMFSMYAMGWYRQAPGKQRELVAATTSGGSTLYADSVKGRFTISRDNSKNTLYLQMNSLRAEDTAVYYCYTYWRGSDPENYWGQGTQVTVSS
notes: not shown: Fc part (and any hinge or linker) of the dimerized VHH-Fc antibody
B3: in the experiment with human VEGF C [5], the Kd was not above 0.645 nM and the kon worked out at 310000 M⁻¹ s⁻¹. For the same molecule, the off-rate (koff) with human VEGF C [7] is not above 0.0002 s⁻¹.

B4: LA49G9 anti-VEGF C VHH antibody (VHH)
VHH: QLQLVESGGGLVQPGGSLRLSCAASGSMFSMYAMGWYRQAPGKQRELVAATTSGGSTLYADSVKGRFTISRDNAENTVYLQMNSLKPEDTAVYYCYTYWRGSDPENYWGRGTQVTVSS
notes: as for B2
Regarding B4, the IC50 in the experiment with human VEGF C [1] came out at 0.236 mg/L; with human VEGF C [4] it was 0.151 mg/L; with human VEGF C [6], 0.352 mg/L; with human VEGF C [3], 0.0815 mg/L. The Kd with human VEGF C [2] was 10 nM; with human VEGF C [5], 0.613 nM. In addition, the koff with human VEGF C [2] was 0.000544 s⁻¹; with human VEGF C [8] it was not above 0.0002 s⁻¹. Besides, the kon with human VEGF C [2] is 54300 M⁻¹ s⁻¹; with human VEGF C [5], 326000 M⁻¹ s⁻¹.

B5: LA63G12.1 humanized anti-VEGF C VHH-Fc antibody (Fc fusion)
chain: EVQLVESGGGLVQPGGSLRLSCAASGSSFSPYAMGWYRQAPGKQRELVSATTSGGSTLYADSVKGRFTISRDNSKNTVYLQMNSLRAEDTAVYYCYMHWRGSDPENYWGQGTQVTVSS
notes: as for B3
Turning to B5, in the experiment with human VEGF C [4], inhibition was half-maximal at 0.492 mg/L (IC50). In the experiment with human VEGF C [5], the Kd was not above 0.622 nM and the kon turned out to be 322000 M⁻¹ s⁻¹. The same molecule had a koff in the experiment with human VEGF C [7] not above 0.0002 s⁻¹. Also, the IC50 in the experiment with human VEGF C [3] was 0.182 mg/L.

B6: am63G12-14B11 affinity-matured humanized anti-VEGF C VHH antibody (VHH)
VHH: EVQLVESGGGLVQPGGSLRLSCAASGSSFSPYAMGWYRQAPGKQRELVSATSEGGFTLYADSVKGRFTISRDNSKNTVYLQMNSLRAEDTAVYYCYMHWRGSDPENYWGQGTQVTVSS
notes: also called am63G12.1-14B11
In the experiment with human VEGF C [4], B6 showed an IC50 of 0.0191 mg/L. In the experiment with human VEGF C [2], this molecule displayed a Kd of 6.21 nM, a koff of 0.000343 s⁻¹ and a kon of 55300 M⁻¹ s⁻¹.
